In US20220017612A1 (TILOS THERAPEUTICS, published 2022):

Experiments:
[1] = molecular target: T1, soluble complex of the extracellular domain of human GARP and human LAP-TGFβ1 (human, UniProt Q14392 20-627); assay: BLI, component 1
T1 construct: extracellular domain; also called sGARP-LAP-TGFβ1; sGARP-LAP
Description: (§1) A streptavidin-functionalized tip was equilibrated in binding buffer (10 mM sodium phosphate, 150 mM sodium chloride, 1% (w/v) bovine serum albumin, 0.05% (w/v) sodium azide, pH 7.4) and dipped in a 5 μg/mL solution of biotinylated antibody (i.e., 20E6_H0.2aL1_hIgG1, murine 16F4, or MHG8, a GARP-specific murine IgG2a described in Lienart et al. Science 2018; 362:952-956) in binding buffer for 30 seconds to load the tip with antibody. The antibody-loaded tip was then washed in binding buffer and placed in a solution containing 0-24 nM of a fusion protein containing a human IgG1 Fc domain fused to either human LAP-TGFβ1, the soluble GARP-LAP-TGFβ1 complex, or the soluble ECR3E-LAP-TGFβ1 complex. The antigen was allowed to bind to antibody for 5 minutes (association phase), and then the tip was moved to binding buffer (dissociation phase). The binding and dissociation data for 16F4 and MHG8 were well-fit by a 1:1 binding model. The association and dissociation phases for 20E6_H0.2aL1_hIgG1 antibody were fit to a 2:1 heterogenous ligand binding model to determine the binding rate constants.
(§2) As shown in FIG. 24 and Table 21, the 20E6_H0.2aL1_hIgG1 antibody bound to free LAP-TGFβ1 and the soluble GARP-LAP-TGFβ1 complex with nanomolar affinity, but not to the ECR3E-LAP-TGFβ1 complex. As expected, the anti-GARP antibody (MHG8) bound to the GARP-LAP-TGFβ1 complex, but not to free LAP-TGFβ1 or the ECR3E-LAP-TGFβ1 complex. 16F4 bound tightly to all three constructs.

[2] = molecular target: murine LAP-TGFβ1 overexpressed on cells (mouse, UniProt P04202 30-390); assay: cell-based or functional assay
[3] = molecular target: T2, fusion protein of a human IgG1 Fc domain and human LAP-TGFβ1 (human, UniProt P01137 30-390); assay: BLI, 2:1 model, component 1
T2 construct: printed both as Fc-huB1 and LAP-TGFβ-Fc; also called Fc-huB1; Fc-human LAP
Description: as §1, §2

[4] = molecular target: T3, human GARP and human LAP-TGFβ1 co-expressed on P3U1 cells (human, UniProt Q14392 20-662); assay: flow cytometry, P3U1 cells
T3 construct: whole, on cells; also called P3U1 cells over-expressing human GARP and LAP-TGFβ1
Description: This Example describes the binding of anti-LAP antibodies to LAP-TGFβ isoforms and LAP-TGFβ variants. In addition to antibodies 28G11_hIgG1, 22F9_hIgG1, and 20E6_hIgG1, anti-LAP antibodies 17G8_hIgG1, 24E3_hIgG1, and 2C9_(hyb) were also tested in this experiment. Briefly, 4×10⁵ each of (a) HT1080 cells, (b) HT1080 cells overexpressing human LAP-TGFβ1, (c) HT1080 cells overexpressing human LAP-TGFβ2, (d) HT1080 cells overexpressing human LAP-TGFβ3, (e) HT1080 cells overexpressing murine LAP-TGFβ1, (f) P3U1 cells, (g) P3U1 cells overexpressing LAP-TGFβ1 and GARP, and (h) P3U1 cells overexpressing LAP-TGFβ1 and LRRC33 were cultured in 96-well plates. The plates were centrifuged for 5 min at 1,500 rpm, liquid was removed, and cells were resuspended with 200 μL FACS buffer. The plates were centrifuged again, diluted primary antibody was added to each well, and the plates were incubated on ice for 20 minutes, followed by centrifugation. The cells were resuspended in 200 μL FACS buffer, centrifuged again, and resuspended in 50 μL diluted secondary antibody (Alexa647-anti-Human IgG or APC-anti-Mouse IgG). The plates were incubated on ice for 20 minutes in the dark, washed twice with 200 μL FACS buffer, and cells from each well (in 200 μL FACS buffer) were read on the Attune NXT instrument.

[5] = molecular target: human LAP-TGFβ1 overexpressed on cells (human, UniProt P01137 30-390); assay: cell-based or functional assay
[6] = molecular target: T2, fusion protein of a human IgG1 Fc …; assay: BLI, signal change on binding
Description: (§3) Binding to human TGFβ1 of a subset of candidates was also tested by bio-layer interferometry (Octet). A streptavidin coated tip was equilibrated for 60 seconds in binding buffer (10 mM sodium phosphate, 150 mM sodium chloride, 1% bovine serum albumin, 0.05% sodium azide). The tip was then dipped in 10 μg/mL biotinylated antibody in binding buffer. After 15 seconds, the tip was washed in binding buffer for 60 seconds, and then dipped in 0-24 nM Fc-human LAP. Analyte association was measured for 5 minutes. The tip was transferred to binding buffer alone, and analyte dissociation was measured for 5 minutes. The association and dissociation data were fit to a 1:1 binding model.

[7] = molecular target: T2, fusion protein of a human IgG1 Fc …; assay: BLI, antibody on tip, 1:1 model
Description: (§4) The chimeric antibodies were biotinylated using EZ-Link SulfoNHS-LC-Biotin (ThermoFisher). A streptavidin-functionalized tip was equilibrated in binding buffer (10 mM sodium phosphate, 150 mM sodium chloride, 1% (w/v) bovine serum albumin, 0.05% (w/v) sodium azide, pH 7.4). The tip was dipped in a 10 μg/mL solution of biotinylated, chimeric anti-LAP in binding buffer for 15 seconds to load the tip with antibody. The antibody-loaded tip was then washed in binding buffer and placed in a solution containing 0-24 nM of LAP-TGFβ1 (either a fusion protein containing a human IgG1 Fc domain fused to human LAP-TGFβ1 or a murine LAP-TGFβ1 with a C-terminal polyhistidine purification tag). The antigen was allowed to bind to antibody for 5 minutes (association phase), and then the tip was moved to binding buffer (dissociation phase). The association and dissociation phases were fit to a 1:1 binding model to determine the binding rate constants.

[8] = molecular target: T4, murine LAP-TGFβ1 with a C-terminal polyhistidine purification tag (mouse, UniProt P04202 30-390); assay: BLI, antibody on tip, 1:1 model
T4 construct: also called Mouse LAP-TGFβ1
Description: as §4

[9] = molecular target: T2, fusion protein of a human IgG1 Fc …; assay: BLI, antibody on tip, 1:1 model; remark: listed apart in the source
Description: as §3

T1 sequence (chain, as listed by the source limits assumed, chain 1 of 2): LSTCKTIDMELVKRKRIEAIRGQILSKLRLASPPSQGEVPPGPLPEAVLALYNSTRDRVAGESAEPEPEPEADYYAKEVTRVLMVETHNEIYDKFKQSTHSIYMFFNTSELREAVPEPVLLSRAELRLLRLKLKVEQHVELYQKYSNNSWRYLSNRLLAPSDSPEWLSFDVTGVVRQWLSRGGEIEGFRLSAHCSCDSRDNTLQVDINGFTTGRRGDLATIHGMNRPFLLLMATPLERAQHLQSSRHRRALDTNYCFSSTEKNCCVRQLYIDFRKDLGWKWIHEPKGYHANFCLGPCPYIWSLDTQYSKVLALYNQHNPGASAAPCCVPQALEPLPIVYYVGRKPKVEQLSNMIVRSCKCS
T1 sequence (Q14392 20-627 limits assumed, chain 2 of 2): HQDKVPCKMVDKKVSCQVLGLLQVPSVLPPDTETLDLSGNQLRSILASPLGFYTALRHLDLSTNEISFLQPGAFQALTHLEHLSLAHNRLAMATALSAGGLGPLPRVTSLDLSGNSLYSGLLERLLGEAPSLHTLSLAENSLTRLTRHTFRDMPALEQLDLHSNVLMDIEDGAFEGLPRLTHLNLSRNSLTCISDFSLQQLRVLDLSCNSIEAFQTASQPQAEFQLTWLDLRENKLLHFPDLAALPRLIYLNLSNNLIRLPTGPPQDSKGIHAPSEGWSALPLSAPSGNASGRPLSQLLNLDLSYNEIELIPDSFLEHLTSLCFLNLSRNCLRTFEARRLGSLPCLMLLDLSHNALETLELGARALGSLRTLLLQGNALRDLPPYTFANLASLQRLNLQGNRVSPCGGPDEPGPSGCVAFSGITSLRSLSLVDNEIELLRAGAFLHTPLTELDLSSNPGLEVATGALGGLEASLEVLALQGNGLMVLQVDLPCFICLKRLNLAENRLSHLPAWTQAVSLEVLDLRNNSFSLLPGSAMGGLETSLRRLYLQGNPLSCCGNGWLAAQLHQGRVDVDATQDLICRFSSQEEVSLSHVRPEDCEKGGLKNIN
T2 sequence (P01137 30-390 limits assumed): as the sequence (chain, as listed by the source limits assumed, chain 1 of 2) above
T4 sequence (P04202 30-390 limits assumed): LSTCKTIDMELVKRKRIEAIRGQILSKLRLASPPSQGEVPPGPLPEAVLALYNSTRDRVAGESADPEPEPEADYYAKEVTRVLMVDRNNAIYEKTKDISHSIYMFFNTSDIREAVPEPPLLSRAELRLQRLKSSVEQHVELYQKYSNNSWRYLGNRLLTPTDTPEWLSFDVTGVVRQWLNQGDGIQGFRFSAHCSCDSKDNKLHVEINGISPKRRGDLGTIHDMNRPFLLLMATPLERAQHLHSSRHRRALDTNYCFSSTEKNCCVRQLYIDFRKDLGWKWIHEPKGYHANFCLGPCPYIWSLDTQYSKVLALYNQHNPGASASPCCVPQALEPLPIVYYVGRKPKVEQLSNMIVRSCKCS
Chain of human LAP-TGFβ1 overexpressed on cells (P01137 30-390): as the sequence (chain, as listed by the source limits assumed, chain 1 of 2) above
T3 sequence (chain, as listed by the source, chain 1 of 2): as the sequence (chain, as listed by the source limits assumed, chain 1 of 2) above
T3 sequence (Q14392 20-662, chain 2 of 2): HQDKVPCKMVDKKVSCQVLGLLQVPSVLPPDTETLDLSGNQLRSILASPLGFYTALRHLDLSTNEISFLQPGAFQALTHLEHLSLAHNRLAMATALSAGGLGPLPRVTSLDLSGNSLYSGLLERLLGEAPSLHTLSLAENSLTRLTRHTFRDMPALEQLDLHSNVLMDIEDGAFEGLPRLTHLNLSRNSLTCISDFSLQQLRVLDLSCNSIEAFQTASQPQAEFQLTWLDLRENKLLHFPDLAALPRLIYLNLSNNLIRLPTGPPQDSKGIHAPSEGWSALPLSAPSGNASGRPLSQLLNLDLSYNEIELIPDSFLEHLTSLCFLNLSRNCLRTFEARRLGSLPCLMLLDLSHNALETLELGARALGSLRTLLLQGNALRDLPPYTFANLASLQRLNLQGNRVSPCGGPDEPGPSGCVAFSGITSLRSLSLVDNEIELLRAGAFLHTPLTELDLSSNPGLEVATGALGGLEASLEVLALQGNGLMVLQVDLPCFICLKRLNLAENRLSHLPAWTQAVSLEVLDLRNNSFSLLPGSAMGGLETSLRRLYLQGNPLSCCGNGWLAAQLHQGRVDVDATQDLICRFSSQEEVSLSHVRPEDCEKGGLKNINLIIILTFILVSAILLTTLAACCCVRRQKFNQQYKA
Chain of murine LAP-TGFβ1 overexpressed on cells (P04202 30-390): as the sequence (P04202 30-390 limits assumed) above

Kd [1] [nM] | koff [1] [s⁻¹] | kon [1] [M⁻¹ s⁻¹] | IC50 of inhibition of TGFβ1 activation [2] [µg/mL] | Kd [3] [nM] | koff [3] [s⁻¹] | kon [3] [M⁻¹ s⁻¹] | binding result [4] | Inhibition of human TGFβ1 activation (IC50) [5] [µg/mL] | Binding (nm) [6] [nm] | Kd [7] [nM] | koff [7] [s⁻¹] | kon [7] [M⁻¹ s⁻¹] | Kd [8] [nM] | koff [8] [s⁻¹] | kon [8] [M⁻¹ s⁻¹] | Kd [9] [nM] | koff [9] [s⁻¹] | kon [9] [M⁻¹ s⁻¹] | Binder
18.7 | 0.0518 | 2.77e+06 | 1.7 | 16.2 | 0.0406 | 2.51e+06 | – | – | – | – | – | – | – | – | – | – | – | – | 20E6_H0.2aL1_hIgG1 (antibody, also called 20E6_H0.2aL1_IgG1; humanized 20E6) heavy: not shown light: DIQMTQSPSSLSASVGDRVTITCRASQDITNYLNWYQQKPGKAVKLLIYYTSRLHSGVPSRFSGSGSGTDYTLTISSLQPEDFATYFCQQGDTLPWTFGQGTKLEIKRTVAAPSVFIFPPSDEQLKSGTASVVCLLNNFYPREAKVQWKVDNALQSGNSQESVTEQDSKDSTYSLSSTLTLSKADYEKHKVYACEVTHQGLSSPVTKSFNRGEC
– | – | – | – | – | – | – | binds | 3.9 | 0.27 | 0.76 | 0.000768 | 1.01e+06 | 0.37 | 0.000444 | 1.21e+06 | 3.74 | 0.00168 | 450000 | 22F9_hIgG1 (antibody, V domains shown) VH: QVQLQQPGAELVKPGASVKLSCKASGYTFTSYWMHWVKQRPGQGLEWIGMIHPNSGSTNYNEKFKSKATLTVDKSSSTAYMQLSSLTSEDSAVYYCAYYDYDGFFDVWGTGTTVTVSS VL: DIVLTQSPASLDVSLGQRATISCRASKSVSTSGYSYMHWYQQKSGQPPKLLIYLASNLESGVPARFSGSGSGTHFTLNIHPVEEEDAATYYCQHSRELPYTFGGGTKLEIK
